# IntAct's records for PubMed 35512704
# B1: Mothers against decapentaplegic homolog 4 (Homo sapiens), Q13485 (parent)
# chain: MDNMSITNTPTSNDACLSIVHSLMCHRQGGESETFAKRAIESLVKKLKEKKDELDSLITAITTNGAHPSKCVTIQRTLDGRLQVAGRKGFPHVIYARLWRWPDLHKNELKHVKYCQYAFDLKCDSVCVNPYHYERVVSPGIDLSGLTLQSNAPSSMMVKDEYVHDFEGQPSLSTEGHSIQTIQHPPSNRASTETYSTPALLAPSESNATSTANFPNIPVASTSQPASILGGSHSEGLLQIASGPQPGQQQNGFTGQPATYHHNSTTTWTGSRTAPYTPNLPHHQNGHLQHHPPMPPHPGHYWPVHNELAFQPPISNHPAPEYWCSIAYFEMDVQVGETFKVPSSCPIVTVDGYVDPSGGDRFCLGQLSNVHRTEAIERARLHIGKGVQLECKGEGDVWVRCLSDHAVFVQSYYLDREAGRAPGDAVHKIYPSAYIKVFDLRQCHRQMQQQAATAQAAAAAQAAAVAGNIPGPGSVGGIAPAISLSAAAGIGVDDLRRLCILRMSFVKGWGPDYPRQSIKETPCWIEIHLHRALQLLDEVLHTMPIADPQPLD
# Variants of: B1
# Conditions: with p85b_human PIK3R2, O00459
row,effect of a mutation on the interaction,Variant
1,with no effect,G386D

# Variants of: B1
# Conditions: with dpod1_human POLD1, P28340
# Chain of dpod1_human POLD1, P28340 (P28340 whole entry): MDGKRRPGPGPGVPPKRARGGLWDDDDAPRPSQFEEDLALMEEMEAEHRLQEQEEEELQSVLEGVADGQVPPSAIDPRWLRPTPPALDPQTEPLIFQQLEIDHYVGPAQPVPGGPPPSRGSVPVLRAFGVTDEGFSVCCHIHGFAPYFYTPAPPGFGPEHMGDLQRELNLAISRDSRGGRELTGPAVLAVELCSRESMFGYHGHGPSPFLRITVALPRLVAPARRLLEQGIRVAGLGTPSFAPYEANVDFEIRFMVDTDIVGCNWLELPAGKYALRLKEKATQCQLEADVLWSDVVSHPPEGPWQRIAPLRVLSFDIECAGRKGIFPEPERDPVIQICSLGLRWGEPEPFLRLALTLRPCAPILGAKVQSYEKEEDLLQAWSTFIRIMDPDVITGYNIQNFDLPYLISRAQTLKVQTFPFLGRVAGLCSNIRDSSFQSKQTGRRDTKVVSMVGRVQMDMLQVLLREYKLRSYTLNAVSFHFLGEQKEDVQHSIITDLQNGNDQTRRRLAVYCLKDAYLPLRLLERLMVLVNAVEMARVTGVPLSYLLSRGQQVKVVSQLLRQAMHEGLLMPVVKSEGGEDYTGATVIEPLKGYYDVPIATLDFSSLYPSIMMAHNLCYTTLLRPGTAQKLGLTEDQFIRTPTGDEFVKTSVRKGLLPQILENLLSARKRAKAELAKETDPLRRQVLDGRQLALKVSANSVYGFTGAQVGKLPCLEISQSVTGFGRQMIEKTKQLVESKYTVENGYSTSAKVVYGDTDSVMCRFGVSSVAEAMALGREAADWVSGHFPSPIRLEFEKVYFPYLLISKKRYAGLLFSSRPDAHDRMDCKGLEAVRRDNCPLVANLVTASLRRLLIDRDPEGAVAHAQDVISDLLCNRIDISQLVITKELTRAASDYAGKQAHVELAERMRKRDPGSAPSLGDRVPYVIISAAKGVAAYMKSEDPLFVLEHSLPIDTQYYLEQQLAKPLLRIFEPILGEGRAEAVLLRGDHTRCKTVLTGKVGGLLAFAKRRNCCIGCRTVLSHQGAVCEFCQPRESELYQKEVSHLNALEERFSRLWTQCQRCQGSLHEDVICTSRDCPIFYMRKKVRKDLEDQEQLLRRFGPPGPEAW
row,effect of a mutation on the interaction,Variant
1,with no effect,G386D

# Variants of: B1
# Conditions: with dpoe1_human POLE
row,effect of a mutation on the interaction,Variant
1,with no effect,G386D

# Variants of: B1
# Conditions: with 2aaa_human PPP2R1A
row,effect of a mutation on the interaction,Variant
1,with no effect,G386D

# Variants of: B1
# Conditions: with prdm1_human PRDM1, O75626
row,effect of a mutation on the interaction,Variant
1,with no effect,G386D

# Variants of: B1
# Conditions: with aapk2_human PRKAA2, P54646
row,effect of a mutation on the interaction,Variant
1,with no effect,G386D

# Variants of: B1
# Conditions: with aakb2_human PRKAB2, O43741
# Chain of aakb2_human PRKAB2, O43741 (O43741 whole entry): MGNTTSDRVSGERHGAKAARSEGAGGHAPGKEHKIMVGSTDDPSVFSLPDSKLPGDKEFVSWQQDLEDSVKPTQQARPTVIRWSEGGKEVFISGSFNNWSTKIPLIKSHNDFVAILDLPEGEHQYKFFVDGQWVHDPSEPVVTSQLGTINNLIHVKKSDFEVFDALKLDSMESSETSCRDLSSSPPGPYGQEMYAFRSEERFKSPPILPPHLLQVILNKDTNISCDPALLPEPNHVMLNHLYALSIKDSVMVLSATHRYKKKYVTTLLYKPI
row,effect of a mutation on the interaction,Variant
1,with no effect,G386D

# Variants of: B1
# Conditions: with prss8_human PRSS8, Q16651
# Chain of prss8_human PRSS8, Q16651 (Q16651 whole entry, looked up): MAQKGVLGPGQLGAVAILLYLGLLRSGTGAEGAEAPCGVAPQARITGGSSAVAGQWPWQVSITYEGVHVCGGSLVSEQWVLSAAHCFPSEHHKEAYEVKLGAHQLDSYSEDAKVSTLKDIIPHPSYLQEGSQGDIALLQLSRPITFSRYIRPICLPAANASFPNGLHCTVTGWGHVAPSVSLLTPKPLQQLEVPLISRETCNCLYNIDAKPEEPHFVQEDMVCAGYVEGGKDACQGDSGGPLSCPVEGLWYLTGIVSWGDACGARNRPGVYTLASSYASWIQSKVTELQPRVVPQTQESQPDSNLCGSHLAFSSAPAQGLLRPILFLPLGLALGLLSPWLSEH
row,effect of a mutation on the interaction,Variant
1,with no effect,G386D

# Variants of: B1
# Conditions: with ptk6_human PTK6, Q13882
row,effect of a mutation on the interaction,Variant
1,with no effect,G386D

# Variants of: B1
# Conditions: with tf65_human RELA
row,effect of a mutation on the interaction,Variant
1,with no effect,G386D

# Variants of: B1
# Conditions: with rheb_human RHEB
row,effect of a mutation on the interaction,Variant
1,with no effect,G386D

# Variants of: B1
# Conditions: with rictr_human RICTOR
row,effect of a mutation on the interaction,Variant
1,with no effect,G386D

# Variants of: B1
# Conditions: with rnf43_human RNF43, Q68DV7
row,effect of a mutation on the interaction,Variant
1,with no effect,G386D

# Variants of: B1
# Conditions: with ros1_human ROS1, P08922
row,effect of a mutation on the interaction,Variant
1,with no effect,G386D

# Variants of: B1
# Conditions: with rl5_human RPL5, P46777
row,effect of a mutation on the interaction,Variant
1,with no effect,G386D

# Variants of: B1
# Conditions: with ks6b1_human RPS6KB1, P23443
row,effect of a mutation on the interaction,Variant
1,with no effect,G386D

# Variants of: B1
# Conditions: with rptor_human RPTOR
row,effect of a mutation on the interaction,Variant
1,with no effect,G386D

# Variants of: B1
# Conditions: with runx1_human RUNX1, Q01196
row,effect of a mutation on the interaction,Variant
1,with no effect,G386D

# Variants of: B1
# Conditions: with ruvb1_human RUVBL1, Q9Y265
# Chain of ruvb1_human RUVBL1, Q9Y265 (Q9Y265 whole entry): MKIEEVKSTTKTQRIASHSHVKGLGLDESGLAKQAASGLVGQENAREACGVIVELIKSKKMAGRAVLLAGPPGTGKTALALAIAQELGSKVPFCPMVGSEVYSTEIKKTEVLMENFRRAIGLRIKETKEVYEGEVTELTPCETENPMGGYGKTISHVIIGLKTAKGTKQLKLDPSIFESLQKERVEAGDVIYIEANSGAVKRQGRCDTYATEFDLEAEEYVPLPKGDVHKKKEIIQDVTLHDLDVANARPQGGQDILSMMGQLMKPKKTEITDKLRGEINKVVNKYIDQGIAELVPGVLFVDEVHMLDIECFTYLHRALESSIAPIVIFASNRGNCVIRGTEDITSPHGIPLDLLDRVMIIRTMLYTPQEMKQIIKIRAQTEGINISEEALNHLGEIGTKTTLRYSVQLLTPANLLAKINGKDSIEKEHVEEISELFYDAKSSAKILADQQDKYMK
row,effect of a mutation on the interaction,Variant
1,with no effect,G386D

# Variants of: B1
# Conditions: with sdha_human SDHA
row,effect of a mutation on the interaction,Variant
1,with no effect,G386D

# Variants of: B1
# Conditions: with setb1_human SETDB1, Q15047
row,effect of a mutation on the interaction,Variant
1,with no effect,G386D

# Variants of: B1
# Conditions: with skp2_human SKP2, Q13309
row,effect of a mutation on the interaction,Variant
1,with no effect,G386D

# Variants of: B1
# Conditions: with smad1_human SMAD1, Q15797
# Chain of smad1_human SMAD1, Q15797 (Q15797 whole entry): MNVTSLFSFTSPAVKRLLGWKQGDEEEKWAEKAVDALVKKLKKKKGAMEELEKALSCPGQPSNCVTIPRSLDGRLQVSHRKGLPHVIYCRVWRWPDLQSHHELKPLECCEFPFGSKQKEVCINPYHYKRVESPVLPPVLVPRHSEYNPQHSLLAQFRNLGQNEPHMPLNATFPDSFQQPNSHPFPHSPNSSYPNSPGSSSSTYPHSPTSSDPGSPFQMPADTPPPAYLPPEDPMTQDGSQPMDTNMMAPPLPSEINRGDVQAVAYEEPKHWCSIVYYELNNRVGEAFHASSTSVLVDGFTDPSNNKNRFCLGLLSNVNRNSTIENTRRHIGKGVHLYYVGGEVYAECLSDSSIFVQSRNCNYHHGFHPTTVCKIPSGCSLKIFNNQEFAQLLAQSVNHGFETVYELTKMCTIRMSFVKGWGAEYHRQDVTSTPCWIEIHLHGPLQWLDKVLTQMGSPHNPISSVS
row,effect of a mutation on the interaction,Variant
1,with no effect,G386D

# Variants of: B1
# Conditions: with smad2_human SMAD2, Q15796
# Chain of smad2_human SMAD2, Q15796 (Q15796 whole entry): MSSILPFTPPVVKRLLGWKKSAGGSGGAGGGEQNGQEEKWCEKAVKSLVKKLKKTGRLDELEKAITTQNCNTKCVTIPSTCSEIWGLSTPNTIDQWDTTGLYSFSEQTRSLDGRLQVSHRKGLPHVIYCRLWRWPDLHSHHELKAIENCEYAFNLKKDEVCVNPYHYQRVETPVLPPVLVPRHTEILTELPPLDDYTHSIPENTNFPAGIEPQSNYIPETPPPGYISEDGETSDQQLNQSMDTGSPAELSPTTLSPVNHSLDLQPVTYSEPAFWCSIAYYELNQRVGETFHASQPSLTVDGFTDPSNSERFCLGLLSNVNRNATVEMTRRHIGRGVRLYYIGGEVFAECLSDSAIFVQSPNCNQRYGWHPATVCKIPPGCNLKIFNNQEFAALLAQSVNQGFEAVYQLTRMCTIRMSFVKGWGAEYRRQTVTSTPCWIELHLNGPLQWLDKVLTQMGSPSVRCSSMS
row,effect of a mutation on the interaction,Variant
1,with no effect,G386D

# Variants of: B1
# Conditions: with smad3_human SMAD3, P84022
# Chain of smad3_human SMAD3, P84022 (P84022 whole entry, looked up): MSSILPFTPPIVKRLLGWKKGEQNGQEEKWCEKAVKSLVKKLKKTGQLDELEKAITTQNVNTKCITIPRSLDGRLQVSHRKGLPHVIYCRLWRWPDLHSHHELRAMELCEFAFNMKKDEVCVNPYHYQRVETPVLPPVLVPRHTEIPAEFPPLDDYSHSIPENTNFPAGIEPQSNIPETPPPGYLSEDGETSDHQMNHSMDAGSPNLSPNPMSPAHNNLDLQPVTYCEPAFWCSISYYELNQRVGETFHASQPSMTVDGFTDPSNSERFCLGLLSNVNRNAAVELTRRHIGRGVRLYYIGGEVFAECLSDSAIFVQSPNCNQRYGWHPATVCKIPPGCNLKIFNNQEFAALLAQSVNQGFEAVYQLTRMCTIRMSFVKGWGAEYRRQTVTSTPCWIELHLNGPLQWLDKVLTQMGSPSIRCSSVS
row,effect of a mutation on the interaction,Variant
1,with no effect,G386D

# Variants of: B1
# Conditions: with smca4_human SMARCA4, P51532
row,effect of a mutation on the interaction,Variant
1,with no effect,G386D

# Variants of: B1
# Conditions: with snf5_human SMARCB1, Q12824
# Chain of snf5_human SMARCB1, Q12824 (Q12824 whole entry): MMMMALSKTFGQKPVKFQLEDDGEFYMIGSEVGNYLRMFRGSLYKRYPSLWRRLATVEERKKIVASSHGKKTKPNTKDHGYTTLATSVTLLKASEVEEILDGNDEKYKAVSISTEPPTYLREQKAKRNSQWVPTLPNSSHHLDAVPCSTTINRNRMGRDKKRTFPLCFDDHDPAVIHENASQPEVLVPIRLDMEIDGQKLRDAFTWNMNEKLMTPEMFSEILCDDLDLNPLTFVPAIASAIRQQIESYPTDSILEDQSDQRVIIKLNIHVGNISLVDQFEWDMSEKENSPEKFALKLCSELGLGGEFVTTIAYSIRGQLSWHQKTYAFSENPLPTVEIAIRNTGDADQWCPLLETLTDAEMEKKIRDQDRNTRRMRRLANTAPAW
row,effect of a mutation on the interaction,Variant
1,with no effect,G386D

# Variants of: B1
# Conditions: with smo_human SMO
row,effect of a mutation on the interaction,Variant
1,with no effect,G386D

# Variants of: B1
# Conditions: with socs1_human SOCS1, O15524
# Chain of socs1_human SOCS1, O15524 (O15524 whole entry): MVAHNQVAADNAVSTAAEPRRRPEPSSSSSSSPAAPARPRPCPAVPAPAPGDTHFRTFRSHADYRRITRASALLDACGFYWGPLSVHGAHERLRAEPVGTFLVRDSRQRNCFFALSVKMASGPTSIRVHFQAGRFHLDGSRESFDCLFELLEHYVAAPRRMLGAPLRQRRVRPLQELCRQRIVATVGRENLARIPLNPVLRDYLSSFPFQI
row,effect of a mutation on the interaction,Variant
1,with no effect,G386D

# Variants of: B1
# Conditions: with sox10_human SOX10, P56693
row,effect of a mutation on the interaction,Variant
1,with no effect,G386D

# Variants of: B1
# Conditions: with sox2_human SOX2, P48431
row,effect of a mutation on the interaction,Variant
1,with no effect,G386D

# Variants of: B1
# Conditions: with sox3_human SOX3, P41225
row,effect of a mutation on the interaction,Variant
1,with no effect,G386D

# Variants of: B1
# Conditions: with sox4_human SOX4, Q06945
row,effect of a mutation on the interaction,Variant
1,with no effect,G386D

# Variants of: B1
# Conditions: with sox9_human SOX9, P48436
row,effect of a mutation on the interaction,Variant
1,with no effect,G386D

# Variants of: B1
# Conditions: with spop_human SPOP
row,effect of a mutation on the interaction,Variant
1,with no effect,G386D

# Variants of: B1
# Conditions: with src_human SRC
row,effect of a mutation on the interaction,Variant
1,with no effect,G386D

# Variants of: B1
# Conditions: with stat3_human STAT3, P40763
row,effect of a mutation on the interaction,Variant
1,with no effect,G386D

# Variants of: B1
# Conditions: with stk38_human STK38, Q15208
row,effect of a mutation on the interaction,Variant
1,with no effect,G386D

# Variants of: B1
# Conditions: with ksyk_human SYK
row,effect of a mutation on the interaction,Variant
1,with no effect,G386D

# Variants of: B1
# Conditions: with eloc_human ELOC
row,effect of a mutation on the interaction,Variant
1,with no effect,G386D

# Variants of: B1
# Conditions: with tfe2_human TCF3, P15923
row,effect of a mutation on the interaction,Variant
1,with no effect,G386D

# Variants of: B1
# Conditions: with tead1_human TEAD1, P28347
row,effect of a mutation on the interaction,Variant
1,with no effect,G386D

# Variants of: B1
# Conditions: with tead2_human TEAD2, Q15562
# Chain of tead2_human TEAD2, Q15562 (Q15562 whole entry): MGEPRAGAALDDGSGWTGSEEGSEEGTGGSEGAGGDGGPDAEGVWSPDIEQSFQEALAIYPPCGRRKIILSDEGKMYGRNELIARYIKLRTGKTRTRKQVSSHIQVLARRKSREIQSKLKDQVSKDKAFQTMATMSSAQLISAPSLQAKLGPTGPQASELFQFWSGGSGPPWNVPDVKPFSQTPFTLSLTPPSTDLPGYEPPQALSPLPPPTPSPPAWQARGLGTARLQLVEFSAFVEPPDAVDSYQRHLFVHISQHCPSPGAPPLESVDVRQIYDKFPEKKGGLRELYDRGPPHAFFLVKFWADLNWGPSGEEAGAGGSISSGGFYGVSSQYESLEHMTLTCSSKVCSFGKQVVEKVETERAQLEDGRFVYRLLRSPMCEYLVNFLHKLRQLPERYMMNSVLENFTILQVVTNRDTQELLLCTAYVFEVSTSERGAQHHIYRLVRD
row,effect of a mutation on the interaction,Variant
1,with no effect,G386D

# Variants of: B1
# Conditions: with tead3_human TEAD3, Q99594
row,effect of a mutation on the interaction,Variant
1,with no effect,G386D

# Variants of: B1
# Conditions: with tet2_human TET2, Q6N021
row,effect of a mutation on the interaction,Variant
1,with no effect,G386D

# Variants of: B1
# Conditions: with tgfr2_human TGFBR2, P37173
row,effect of a mutation on the interaction,Variant
1,with no effect,G386D

# Variants of: B1
# Conditions: with tnr14_human TNFRSF14, Q92956
row,effect of a mutation on the interaction,Variant
1,with no effect,G386D

# Variants of: B1
# Conditions: with tpx2_human TPX2, Q9ULW0
row,effect of a mutation on the interaction,Variant
1,with no effect,G386D

# Variants of: B1
# Conditions: with trrap_human TRRAP
row,effect of a mutation on the interaction,Variant
1,with no effect,G386D

# Variants of: B1
# Conditions: with tsc2_human TSC2, P49815
row,effect of a mutation on the interaction,Variant
1,with no effect,G386D

# Variants of: B1
# Conditions: with tshr_human TSHR
row,effect of a mutation on the interaction,Variant
1,with no effect,G386D

# Variants of: B1
# Conditions: with vhl_human VHL
row,effect of a mutation on the interaction,Variant
1,with no effect,G386D

# Variants of: B1
# Conditions: with wt1_human WT1, P19544
row,effect of a mutation on the interaction,Variant
1,with no effect,G386D

# Variants of: B1
# Conditions: with wwtr1_human WWTR1, Q9GZV5
row,effect of a mutation on the interaction,Variant
1,with no effect,G386D

# Variants of: B1
# Conditions: with xirp2_human XIRP2, A4UGR9
row,effect of a mutation on the interaction,Variant
1,with no effect,G386D

# Variants of: B1
# Conditions: with xpo1_human XPO1, O14980
row,effect of a mutation on the interaction,Variant
1,with no effect,G386D

# Variants of: B1
# Conditions: with 1433e_human YWHAE
row,effect of a mutation on the interaction,Variant
1,with no effect,G386D

# Variants of: B1
# Conditions: with 1433z_human YWHAZ
row,effect of a mutation on the interaction,Variant
1,with no effect,G386D

# Variants of: B1
# Conditions: with arc1a_human ARPC1A
row,effect of a mutation on the interaction,Variant
1,increasing interaction strength,G386D

# Variants of: B1
# Conditions: with axin2_human AXIN2, Q9Y2T1
row,effect of a mutation on the interaction,Variant
1,increasing interaction strength,G386D

# Variants of: B1
# Conditions: with btg1_human BTG1, P62324
row,effect of a mutation on the interaction,Variant
1,increasing interaction strength,G386D

# Variants of: B1
# Conditions: with erbb3_human ERBB3, P21860
row,effect of a mutation on the interaction,Variant
1,increasing interaction strength,G386D

# Variants of: B1
# Conditions: with gna13_human GNA13, Q14344
row,effect of a mutation on the interaction,Variant
1,increasing interaction strength,G386D

# Variants of: B1
# Conditions: with gsk3b_human GSK3B
row,effect of a mutation on the interaction,Variant
1,increasing interaction strength,G386D

# Variants of: B1
# Conditions: with hdac1_human HDAC1, Q13547
row,effect of a mutation on the interaction,Variant
1,increasing interaction strength,G386D

# Variants of: B1
# Conditions: with hnf1a_human HNF1A
row,effect of a mutation on the interaction,Variant
1,increasing interaction strength,G386D

# Variants of: B1
# Conditions: with notc2_human NOTCH2, Q04721
row,effect of a mutation on the interaction,Variant
1,causing an interaction,G386D

# Variants of: B1
# Conditions: with ntrk2_human NTRK2, Q16620
row,effect of a mutation on the interaction,Variant
1,causing an interaction,G386D

# Variants of: B1
# Conditions: with dpod1_human POLD1, P28340
# Remark: another data set of the same source
row,effect of a mutation on the interaction,Variant
1,increasing interaction strength,G386D

# Variants of: B1
# Conditions: with socs1_human SOCS1, O15524
# Remark: another data set of the same source
row,effect of a mutation on the interaction,Variant
1,increasing interaction strength,G386D

# Variants of: B1
# Conditions: with tshr_human TSHR
# Remark: another data set of the same source
row,effect of a mutation on the interaction,Variant
1,increasing interaction strength,G386D

# Variants of: B1
# Conditions: with smad2_human SMAD2, Q15796
# Remark: another data set of the same source
row,effect of a mutation on the interaction,Variant
1,disrupting interaction strength,G386D

# Variants of: B1
# Conditions: with smad3_human SMAD3, P84022
# Remark: another data set of the same source
row,effect of a mutation on the interaction,Variant
1,decreasing interaction strength,G386D

# Variants of: B1
# Conditions: with cdk6_human CDK6, Q00534
row,effect of a mutation on the interaction,Variant
1,decreasing interaction strength,G386D

# Variants of: B1
# Conditions: with ccnd1_human CCND1, P24385
row,effect of a mutation on the interaction,Variant
1,decreasing interaction strength,G386D

# Variants of: B1
# Conditions: with akt1_human AKT1, P31749
row,effect of a mutation on the interaction,Variant
1,decreasing interaction strength,G386D

# Variants of: B1
# Conditions: with pk3cb_human PIK3CB
row,effect of a mutation on the interaction,Variant
1,decreasing interaction strength,G386D

# Variants of: B1
# Conditions: with jak1_human JAK1, P23458
row,effect of a mutation on the interaction,Variant
1,decreasing interaction strength,G386D

# Variants of: B1
# Conditions: with jak3_human JAK3, P52333
row,effect of a mutation on the interaction,Variant
1,decreasing interaction strength,G386D

# Variants of: B1
# Conditions: with baba2_human BABAM2, Q9NXR7
# Chain of baba2_human BABAM2, Q9NXR7 (Q9NXR7 whole entry): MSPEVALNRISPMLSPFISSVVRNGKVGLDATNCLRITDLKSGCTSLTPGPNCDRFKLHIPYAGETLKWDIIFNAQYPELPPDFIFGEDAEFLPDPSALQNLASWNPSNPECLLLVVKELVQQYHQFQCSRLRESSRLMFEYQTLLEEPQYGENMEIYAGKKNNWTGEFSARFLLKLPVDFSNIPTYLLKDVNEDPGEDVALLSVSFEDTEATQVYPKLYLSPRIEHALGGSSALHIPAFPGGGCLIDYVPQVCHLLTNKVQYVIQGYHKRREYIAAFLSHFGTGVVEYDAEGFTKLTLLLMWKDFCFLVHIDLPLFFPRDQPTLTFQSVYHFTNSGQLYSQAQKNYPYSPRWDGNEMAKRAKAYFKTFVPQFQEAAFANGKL
row,effect of a mutation on the interaction,Variant
1,increasing interaction strength,G386D
